Experimental data: patent US8642565B2, “Increase of immune response and targeting by antigens and/or drug linkage” (Wittycell, priority 2007, dated 2014)

B1: OVA covalently linked to PBS-6: Examples 2-4: ovalbumin peptide covalently linked to PBS-6 (Example 2 peptide VSGLEQLESIINFEKLTEWTS) (conjugate, UniProt P01012 2-386, looked up)
Ovalbumin: GSIGAASMEFCFDVFKELKVHHANENIFYCPIAIMSALAMVYLGAKDSTRTQINKVVRFDKLPGFGDSIEAQCGTSVNVHSSLRDILNQITKPNDVYSFSLASRLYAEERYPILPEYLQCVKELYRGGLEPINFQTAADQARELINSWVESQTNGIIRNVLQPSSVDSQTAMVLVNAIVFKGLWEKAFKDEDTQAMPFRVTEQESKPVQMMYQIGLFRVASMASEKMKILELPFASGTMSMLVLLPDEVSGLEQLESIINFEKLTEWTSSNVMEERKIKVYLPRMKMEEKYNLTSVLMAMGITDVFSSSANLSGISSAESLKISQAVHAAHAEINEAGREVVGSAEAGVDAASVSEEFRADHPFLFCIKHIATNAVLFFGRCVSP
modifications: covalently linked to glycolipid PBS-6
B2: OVA covalently linked to PBS-57 (conjugate, UniProt P01012 2-386, looked up)
Ovalbumin: B1 Ovalbumin
modifications: covalently linked to glycolipid PBS-57
B3: OVA covalently linked to PBS-14 (conjugate, UniProt P01012 2-386, looked up)
Ovalbumin: B1 Ovalbumin
modifications: covalently linked to glycolipid PBS-14

Columns and labels:
[1] = system: SIINFEKL (SEQ ID NO:1) induced CD8+ T cell response; SINFEKL-loaded targets; assay: VITAL in vivo cytotoxicity assay, intravenous immunization (Example 1); design: species or system C57BI/6J CD45.2 female mice; settings: 1 μg to 100 μg of Ova peptide alone, day 0, read out day 11
[2] = system: OVA specific IgG2a antibodies; assay: Ovalbumin-specific IgG2a antibody titer after immunization (Example 4); type: in vivo, mice; settings: 1 μg conjugate, intramuscular route, day 0 and day 14, samples 14 days after second immunization; compared with 50 μg of OVA alone (FIG. 5)
Experimental: (§1) The aim of this study was to evaluate IgG1 and IgG2a antibody response following immunization with ovalbumin in combination with different adjuvant covalently linked.
(§2) The sera tested were as follows:
(§3) Group 1; 6 mice immunized with 500 μg of ova protein with CFA/IFA (Positive control)
(§4) Group 2: 6 mice immunized with 50 μg of long ova peptide of sequence […] (SEQ ID NO:3; amino acids 316 to 338 of ovalbumin)
(§5) Group 3: 6 mice immunized with 50 μg of short ova peptide of sequence KISQAVHAAHA (SEQ ID NO:4; amino acids 323 to 333 of ovalbumin)
(§6) Group 4: 6 mice immunized with 1 μg PBS-6-OVA
(§7) Group 5: 6 mice immunized with 1 μg PBS-14-OVA
(§8) Group 6: 6 mice immunized with 1 μg PBS-57-OVA
(§9) All mice were immunized by intramuscular route at day 0 and day 14. All samples were collected 14 days following the second immunization and the IgG1 and IgG2a titers specific of ovalbumin were evaluated.

[3] = system: SIINFEKL-H2K^b specific CD8+ cells; assay: Detection of SIINFEKL specific CD8+ cells by FACS, H-2 Kb SIINFEKL pentamer and CD8 co-staining (Example 2); type: in vivo, C57BI/6J CD45.2 female mice; settings: 1 μg conjugate, intramuscular route, day 0 and 14; compared with mice treated with 50 μg of OVA alone (FIG. 2)
Source text: Forty-eight 9 week-old C57BI/6J CD45.2 female mice were used for immunisation. They were split into 9 groups: groups 1 and 2 included 3 animals and groups 3 to 9 included six animals.
The ovalbumin peptide consists in the […] sequence (SEQ ID NO:2) and the glycolipids used are PBS-6, PBS-14 and PBS-57.
The mice were vaccinated by intramuscular route at day 0 and 14 with the following solutions according to the different groups:
Detection of SIINFEKL specific CD8+ cells was monitored by FACS following H-2 Kb SIINFEKL pentamer and CD8 co-staining.

[4] = system: OVA specific IgG1 antibodies; assay: Ovalbumin-specific IgG1 antibody titer after immunization (Example 4); type: in vivo, mice; settings: 1 μg conjugate, intramuscular route, day 0 and day 14, samples 14 days after second immunization; compared with 50 μg of OVA alone (FIG. 4)
Experimental: as §1, §2, §3, §4, §5, §6, §7, §8, §9

[5] = system: SIINFEKL (SEQ ID NO:1) induced CD8+ T cell response; assay: VITAL in vivo cytotoxicity assay, intramuscular immunization, OVA (Example 3); design: species or system C57BI/6J CD45.2 female mice; settings: 1 μg conjugate, day 0, compared with mice treated with 50 μg of OVA alone (FIG. 3)
Experimental: Sixty-nine 9 week-old C57BI/6J CD45.2 female mice were used for immunisation. They were split into 14 groups: groups 1 to 5 included 3 animals, and groups 6 to 14 included 6 animals.
The in vivo cytotoxicity of SIINFEKL (SEQ ID NO:1) induced CD8^+ T cell response was evaluated by VITAL assay as described in Example 1.
The short ovalbumin peptide consists in the SIINFEKL sequence (SEQ ID NO:1; amino acids 257 to 264 of ovalbumin), the long ovalbumin peptide consists in the […] sequence (SEQ ID NO:2; amino acids 250 to 269 of ovalbumin) and the glycolipids used are PBS-6, PBS-14 and PBS-57.
The mice were vaccinated by intramuscular route at day 0 with the following solutions according to the different groups:
The read out was as described in Example 1.

Row | Molecule | antigen-specific lysis (percent specific lysis) [1] | titer of IgG2a specific of ovalbumin [2] | percentage of SIINFEKL-H2K^b specific CD8+ in the blood [3] | titer of IgG1 specific of ovalbumin [4] | percentage of SIINFEKL-specific cytolytic activity in the blood [5]
1 | Ova peptide: ovalbumine peptide of SIINFEKL sequence (SEQ ID NO:1), amino-acids 257-264 of ovalbumine [reference compound] | no antigen-specific lysis |  |  |  | 
2 | B1 |  | higher titers | stronger percentage | higher titers | stronger percentage
3 | B2 |  | higher titers | stronger percentage | higher titers | stronger percentage
4 | B3 |  | higher titers | stronger percentage | higher titers | stronger percentage
